Assay results: PMC2928751
One block for each substance: values may come before it.

Key:
[1] = biological target: Neil1 D-site peptide (human); assay: peptide or protein array; 17-mer peptides linked by the C-terminus to a nitrocellulose membrane, in duplicate, probed with [35S]-methionine labelled JNK1; PhosphorImager signal normalised to MKK7-D2 = 100%
[2] = biological target: MLL4 D-site peptide (human); assay: as above
[3] = biological target: Gli3 D-site peptide (human); assay: as above
[4] = biological target: 35S-radiolabeled JNK1, P45983-2; assay: peptide array probed with 35S-labeled JNK1, Phosphorimager quantification; conditions: read off a plot

binding normalised to the MKK7-D2 positive control [1]: 198 % of MKK7-D2 | binding normalised to the MKK7-D2 positive control [2]: 161 % of MKK7-D2 | binding normalised to the MKK7-D2 positive control [3]: 193 % of MKK7-D2
Substance: 35S-radiolabeled JNK1 (from UniProt P45983-2 1-384) (enzyme)

response (% of MKK7-D2 binding) ([4]; parent: est. 520): 28
Substance: MKK4 D-site peptide (positive control) MKK4 Mut (alanine substitutions at the critical basic and hydrophobic residues; not printed)

percent of parent (% of MKK7-D2 binding) ([4]; parent: est. 100): 12
Substance: MKK7-D2 peptide (positive control) MKK7 Mut (alanine substitutions at the critical basic and hydrophobic residues; not printed)
